Here are results for two proteins from PMC5094862 (Journal of the American Chemical Society, 2016).

The series concerns the molecule itself. Nature of the series: SEC.

B1: synthetic L-GroES (natural protein, E. coli, UniProt P0A6F9 1-97, looked up)
chain: MNIRPLHDRVIVKRKEVETKSAGGIVLTGSAAAKSTRGEVLAVGNGRILENGEVKPLDVKVGDIVIFNDGYGVKSEKIDNEEVLIMSESDILAIVEA
As to B1, the binding result is “binds”.

B2: recombinant GroES (natural protein, E. coli, UniProt P0A6F9 1-97, looked up)
chain: MNIRPLHDRVIVKRKEVETKSAGGIVLTGSAAAKSTRGEVLAVGNGRILENGEVKPLDVKVGDIVIFNDGYGVKSEKIDNEEVLIMSESDILAIVEA
B2: the binding result is reported as “binds”.
